US6573076B1, “Gene, group of genes, and novel β-glucosidase” (Ajinomoto Co., Inc., priority 1997, dated 2003)

What was measured:
[1] = Specific activity of purified β-glucosidase (G3ase), glucose release from cellotriose; type: biochemical, Acetobacter xylinum subsp. sucrofermentans BPR 2001; details: purified sample; 1 U = 1 μmol glucose from G3 at 30° C. for 2 hr
Experimental: Acetobacter xylinum subsp. sucrofermentans BPR 2001 strain was cultured in CSL-Fru medium using a jar fermenter (inner volume: 3 L, culture medium volume: 1.8 L) at 30° C. and pH5 for 68 hours. The resulting culture medium (about […] in total) was subjected to centrifugation to give its supernatant (3,600 ml). The resulting supernatant was subjected to salting-out with 60%-saturated ammonium sulfate, and the resulting precipitate was collected by centrifugation. The collected precipitate was solubilized into distilled water of 352 ml and dialyzed against distilled water (15 L). The resulting precipitate was collected and extracted three times with 20 mM sodium acetate buffer (pH5.5) containing 0.15 M NaCl. G3ase activity was found in the resulting extract. The extract was subjected to CM-Toyopearl 650M column (Tosoh Co. Ltd.; 3.2 cm in diameter, 13.3 cm in length) equilibrated with 20 mM sodium acetate buffer (pH5.5) containing 0.15 M NaCl to absorb the G3ase activity. […]
After reaction at 30° C. for 2 hr, a reaction solution (300 μl) of a glucose-measuring kit (Glucose CII test Wako: Wako Pure Chemical Industries, Ltd.) was added to the mixture, and reacted for 15 min at a room temperature, followed by the determination of an amount of glucose based on absorbance at 505 nm.

[2] = Isoelectric point of β-glucosidase (G3ase) by IEF-PAGE; type: physicochemical, Acetobacter xylinum subsp. sucrofermentans BPR 2001
Source text: The molecular weight of β-glucosidase (G3ase) determined by SDS-PAGE was about 81,200 (FIG. 2). Its isoelectric point (pI) determined by IEF-PAGE was about 6.0 (FIG. 3).

[3] = type: physicochemical, Acetobacter xylinum subsp. sucrofermentans BPR 2001
Source text: The pH stability of β-glucosidase (G3ase) was studied. […] An optimum pH was about 5.5. The thermal stability of β-glucosidase (G3ase) was also studied.

B1: β-glucosidase (G3ase): β-glucosidase purified from Acetobacter xylinum subsp. sucrofermentans BPR 2001, amino acid sequence SEQ ID NO:7 (protein, listed as Acetobacter xylinum)
chain: MRLSRKIFLLSAVACGMALAQAPAFARHAHDGGGDQADARARQVLASMSLEDKMSLLFSVDGGGFNGSVAPPGGLGSAAYLRAPQGSGLPDLQISDAGLGVRNPAHIRRNGEAVSLPSGQSTASTWDMDMARQAGVMIGREAWQSGFNILLGGGADLTRDPRGGRNFEYAGEDPLQTGRMVGSTIAGVQSQHVISTLKHYAMNDLETSRMTMSADIDPVAMRESDLLGFEIALETGHPGAVMCSYNRVNDLYACENPYLLNKTLKQDWHYPGFVMSDWGATHSSARAALAGLDQESAGDHTDARPYFRTLLAADVKAGRVPEARINDMAERVVRALFAAGLVDHPAQRGPLDVVTDTLVAQKDEEEGAVLLRNQGNILPLSPTARIAVIGGHADAGVISGGGSSQVDPIGGEAVKGPGKKEWPGDPVYFPSSPLKAMQAEAPGARITYDPGTSIASAVRAARAADVVVVYATQFTFEGMDAPSMHLDDNADALITAVAAANPRTVVVMETGDPVLMPWNSSVAGVLEAWFPGSGGGPAIARLLFGKVAPSGHLTMTFPQAESQLAHPDIAGVTADNVFEMQFHTDQELVYDEGSDVGYRWFDRNHFKPLYPFGYGLTYTTFSTDGLKVTERHGQVTATFNVHNTGTRAGVDVPQVYVGLPDGGARRLAGWQRISLAPGESRQVSVQLEPRLLAHFDGKHDRWSVPSGTFRVWLASCATDDSQQTTMHLHGRTMAP
modifications: n at positions 15741 and 15767 may be a, g, t, or c
**Q.** With B1 as the molecule, how does the Specific activity [1] read?
**A.** The Specific activity was 840 U/mg-portein.

**Q.** And the “isoelectric point (pI)” value [2]?
**A.** The value was “about 6.0”.

**Q.** What about the “optimum pH” value [3] of the same molecule?
**A.** Its value is “about 5.5”.

**Q.** And the optimum temperature [3]?
**A.** Its optimum temperature is “about 40 °C”.

**Q.** What about the “temperature at which inactivated” value ([3]; 30-minute treatment at pH 5.5) of the same molecule?
**A.** The value was ≥ 50 °C.

**Q.** And the “temperature at which stable” value ([3]; 30-minute treatment at pH 5.5)?
**A.** Its value is ≤ 30 °C.

**Q.** What about the “remaining activity (pH stability)” value ([3]; 3 h) of the same molecule?
**A.** Its value is ≥ 80%.
